# Measurements: the domain aggregation screens of Martell et al. (2025)
# Test: soluble fraction after stress (log2 fold change); higher = more stays soluble; pooled small domains, quantitative proteomics
# Details: stress: pH 4
# Procedure, shortened: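 Custom libraries of small protein domains were pooled and measured with high-throughput quantitative proteomics after pH 4 stress. The read-out is the fold change in the amount of each domain that stays soluble after the acid stress, taken as a measure of aggregation propensity. Fold changes are on a log2 scale, and higher values mean more of the domain stayed soluble.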
row,Sequence,soluble fraction (log2)
1,HMQGQVLQETARKARSQLDSEIPGFNDALYQNLIKSSENYGYKAEEVAQWVDPRAIKVLNDAYQFQQLKAG,-0.25
2,HMKTITLDEAQEIALAEVDGKVTRAVEETDDGRSYYEFDIITNDQKHELEVDASSGKITKNEIDEDYVPS,-0.0471
3,HMGPNPLTEREQEILQLARTGEPVARLAKRLFLSPGTVRNHLSSAIGKLGAANRVEAAQFATERGW,-0.0238
4,HMDRLTISTLGNGLFRVNGAEAEATVYNLSGNVVKVVPADEVIDLSSLAKGVYIIHVDGEAFKVI,-0.0808
5,HMNSRTLAYSDFIRKVDKGEVSAVVIDGEQVQVQTKDGQTFVTIQPQSEQMNDKLVEQLIAKDISVKAERQ,0.0565
6,HMPVFSAEQVAKAEADVQKVANKVQEAGADVEKLTTIHNWLLAREKYMPPDLFSTANQIIATAFQKAG,0.279
7,HMDGLGLGAVILAQRKRQGWTQEDLAARIGVSKGAVSKWETGQSYPDLPLVPRLAALFHITVDELLDYR,0.263
8,HMKSARQIAILEIIAEKSIETQEDLADALRLRGFQVTQATVSRDIKELRLVKALAPDGTYRYATAEK,0.264
9,HMENKTGEVTVREDSALTLRQGPGTNYEKVGQAYRGDRVDVLEEQNGWYKVKTYDGKEAWASSSYISIV,-0.0485
10,HMTLAAATESREYLADLARRLDAADHGDKTRIKAEAAGLLGWSMATLHARLARDVGWTSGRK,-0.166
11,HMKDESYALGTRLLSHALGKTKLEDLAQEKIDEVVQQSGNKTLEQLLTNIGLGNALSIGIARQLT,≥ 0.43
12,HMNNMVNTLLKLLAEQDVLRGIVRRFTPSSVFVFLQNEEVEVELPLQGRSLAPGQLVELTQEGASVALKRL,-0.679
13,HMQERNYIVRRGDTLWDLAKTYYGSGTKYTVIYDANRDNIEAEAKRRGKQSSNGGYWIYPGTELTI,-0.0819
14,HMATAEETTPLWARNRLSHAIFGPGSVTGEDERSFEVAFDNGDTLNFSKKSAHLYFTAMSSR,-0.808
15,HMGKREKTKVANRQAILVAARAVFAELGYEAATVRDIIRGTDLASGTFYNYFKSKEEVFDALADDGA,-0.79
16,HMSLDLERAVALLSLPRPVGNHPEDGELVEAGIGRYGPYVKHGSKYANLPDADEVFTIGMNRAVEVLAAK,-0.261
17,HMITVPKVINMSETQARQTLDALGLNVTLSATQVMNDKIPYGYVAAQSYSAGKEVPAGTTIELTMSIGL,0.0236
18,HMISINVIGEMISGSYGNTPFSRTYEKDIYEQMVKLSDDADQAQTVEEYNKILAEFSLLTTEDLK,-1.73
19,HMLTWNQLGLITKPVVFLDGTGYYARLFEAFEHMISTGFVKENYRAMMNRATSVEEAVRIASSPAPKVD,-0.187
20,HMPKDLEKRAAILAAAKHLFPVHGFEGTSMDAIAALANVSKLTVYSHFKDKESLFTEAIREK,0.163
21,HMAVTNLTAKQISDTRWRVTWDSTLASPTYYVYRDGLLMMQTRQELYEFDAARGEQVQIDVLDDMAAAPAE,-0.459
22,HMKSLHSEVTDRIRQLIVESHLQPGQRVPELEISRDLGVSRTPIREALKVLAAEGLVELLPLRGAMVK,-0.104
23,HMLSRNEWLVMEALWERPSTLMELVRQLGQEPPGWAKSTTATMVRRMEEKGLIRHEAGSKARVYHP,-0.325
24,HMNDMWADITINANGKATLVVHTHEIKYLGLTGHLGKMEINGTAKEPVKDSSGDVVDYYFTFTDLDASMF,-0.623
25,HMSTISPNAFNFLQQNLNKFSDDAEGKMIKDILSKTTYDEYVKNEKSKTDFNSLLRRQTTTGDDNLNRYIN,0.072
26,HMGSNATIKYAIKGDESLVQVAQKFNVTVSELRSWNNISAFENAKTGQELVINVPASKYETYFALANT,-0.0194
27,HMQADKYKSYTATDFLKDKDFLRWQLFNGEEDMLFWGRVIEEYPALRSRVEEGIVLYKDNIR,-1.18
28,HMDIKDRSGVTIDESNEAQQESIIRESWAEQKISGNVDNYIAYLKANGMLLETAKIELAALQEKDASLRE,-0.78

row,Sequence,soluble fraction (log2)
1,HMVVVPDVKGLKIEEAAEFFKNNNLHYNVIDSVFSKDVEPGAIVELSPLAGSKVKEGRIVFITVNALTS,-0.681
2,HMAFRIGGFVQEGSVVRQQDGGTVRFEVTDTAHSVPVTYKGSLPDLFKEGKGVVAQGKLMNGTFVADQVLA,-0.186
3,HMQQVIQSGQKVQLMATDGSFQVSAEGVALKNGSVGEVIGVRMPSGRVISGVVSASGAVEVR,0.0769
4,HMVTPAQQARDTLLGALVGLARATTSEPKTDDTDVVLNAGLRLAAQPDAPEERLQRMLAIVQTEKHRV,0.215
5,HMQVPWYQRLKEKRLEYGVSQNKLATHIGISRQYMSEIETGKVTPSDSLQATLFDILEQFNPDA,-0.74
6,HMKEPGFAPPVRALAAAPITVLAQVAGTNPGEIRARLRAAGYPVASDQQSVQSLVGGDLKAQIGVLNRILA,-0.0568
7,HMSRLLTTRQREVFEVATREGFWDVPRRINLSELAKVLGVAKSTLSSQLQRIESAVFHAFTDEIRRQS,0.313
8,HMFANQLLLTRFDLNYIKSDVLSRQIDVLGIPIKKLTIEANNKSIWLQGTSQSLSKVRELIGIIDIRENA,-1.73
9,HMRYFDDEELNNKFLEFLSMRKKIRKPVRTDRALKALLKKLHELSGGDVGLMKQIIDQSLDKEWLGLFEL,-0.6
10,HMKTLLSMNIKNLRKKKNMTLEELAEKVGTSKQTIQRYESGKISNIPSDKIELLAKYLDTTPAKLMGW,0.187
11,HMDLGLTDDQRLVYGLLSPTVPRSSGELLGMVDFGRSKLSRILKELIELGQVFTVGVGRGLKYKRG,-0.256
12,HMSKQEFVDRLRVSLSGKISPASVEDNARYYEDYINTHIRLGEPEEDVLEGLGDPRLIARSIVAAESV,-0.0405
13,HMRMLSEGAQRMLRGLAVLEEASADRLLELHQGDYPGFVRSLFALESAGLFQRNGSGTWIRR,-0.996
14,HMGNFNDMLKYLRVREKMSQAELADKLGVSKSTVGMYELGKREPDFETLEAIADLFNVDMNFLLGK,-0.439
15,HMREPIPVPSRPIRAGDLVEIPGTNRPAEVTAVKGDRLVLKAGVLSMTVKNDEVRLIEDDERAAM,0.208
16,HMVKDLEIETIRLNNLLASDAEEVLKSLGGAKPTYKAVAVPGSNSLVIEGTKADLIKLKSIINALEDGS,-0.316
17,HMKEIGGGPASKFIYYLIKTKHPIEQGDLIGITHLPRRTVQSAIEDLKNQGFIIERNSLDDSRRKVYYPVK,0.22
18,HMAELTTVQAADILHVSRPFLIKLLDEGQIPYHRVGKHRRIRMEDVMNYKRAIDQQREAVLDQLVAEA,0.014
19,HMGHEALSSKLDEIQGVGKEKRSLLLDHFKTFERIKNASMEELEAVPSLGKNTAKAVFRFFHS,0.236
20,HMYDKKVFRLLFILNQLDSRKKVSTGELAKEFNVSPRTVQRDIVLLNTTGFPIISLEKGYHSFMEGFSLK,-0.7
21,HMLSDAAAMESIAYEAIRQMEPDTYYIIGAGTTTRGIMEVLGLKNTLIGVDLIRNKELVANDLGGKELLSY,-0.796
22,HMLPFGHTRLEDGTIQEIPEQIALARKVAEMYKAGFPVMQISIKTEGLLTPRQIYGLMNHWGVKR,-0.412
23,HMGVGVPVTLLLEKLGEDTLSAQQIMERLGLKSRASFRKVYLVPALEQKLIEMEFPDKPNSSKQRYRR,-0.00401
24,HMSDPASLQRRLMSDPELTARILDSPFTRSLLDDPNLLRQMVNANPQLRRAMDANPQLRHAL,-0.261
25,HMSNHYETLGVPRDASQEDIKRAYRRLARKLHPDVAGPGKAEEFKAVNEAYAVLSDEESRRMYDLGGDDAL,0.145
26,HMGVSEIGSPAWMESKLVTLASYEGSLDGLRTLWGGVAQHRARIPVESWDRLFAAKEEGKARLVKLGRT,0.0299
27,HMSEVPAAVLVTGGSINLREAPSTDATIIDVAQVGEKMTVLAEKNSWYQVSRGGRNVWVASWVVDPLT,-0.566
